T1: partially deglycosylated complement factor H (100 h PNGase F) (human), P08603
T1 chain: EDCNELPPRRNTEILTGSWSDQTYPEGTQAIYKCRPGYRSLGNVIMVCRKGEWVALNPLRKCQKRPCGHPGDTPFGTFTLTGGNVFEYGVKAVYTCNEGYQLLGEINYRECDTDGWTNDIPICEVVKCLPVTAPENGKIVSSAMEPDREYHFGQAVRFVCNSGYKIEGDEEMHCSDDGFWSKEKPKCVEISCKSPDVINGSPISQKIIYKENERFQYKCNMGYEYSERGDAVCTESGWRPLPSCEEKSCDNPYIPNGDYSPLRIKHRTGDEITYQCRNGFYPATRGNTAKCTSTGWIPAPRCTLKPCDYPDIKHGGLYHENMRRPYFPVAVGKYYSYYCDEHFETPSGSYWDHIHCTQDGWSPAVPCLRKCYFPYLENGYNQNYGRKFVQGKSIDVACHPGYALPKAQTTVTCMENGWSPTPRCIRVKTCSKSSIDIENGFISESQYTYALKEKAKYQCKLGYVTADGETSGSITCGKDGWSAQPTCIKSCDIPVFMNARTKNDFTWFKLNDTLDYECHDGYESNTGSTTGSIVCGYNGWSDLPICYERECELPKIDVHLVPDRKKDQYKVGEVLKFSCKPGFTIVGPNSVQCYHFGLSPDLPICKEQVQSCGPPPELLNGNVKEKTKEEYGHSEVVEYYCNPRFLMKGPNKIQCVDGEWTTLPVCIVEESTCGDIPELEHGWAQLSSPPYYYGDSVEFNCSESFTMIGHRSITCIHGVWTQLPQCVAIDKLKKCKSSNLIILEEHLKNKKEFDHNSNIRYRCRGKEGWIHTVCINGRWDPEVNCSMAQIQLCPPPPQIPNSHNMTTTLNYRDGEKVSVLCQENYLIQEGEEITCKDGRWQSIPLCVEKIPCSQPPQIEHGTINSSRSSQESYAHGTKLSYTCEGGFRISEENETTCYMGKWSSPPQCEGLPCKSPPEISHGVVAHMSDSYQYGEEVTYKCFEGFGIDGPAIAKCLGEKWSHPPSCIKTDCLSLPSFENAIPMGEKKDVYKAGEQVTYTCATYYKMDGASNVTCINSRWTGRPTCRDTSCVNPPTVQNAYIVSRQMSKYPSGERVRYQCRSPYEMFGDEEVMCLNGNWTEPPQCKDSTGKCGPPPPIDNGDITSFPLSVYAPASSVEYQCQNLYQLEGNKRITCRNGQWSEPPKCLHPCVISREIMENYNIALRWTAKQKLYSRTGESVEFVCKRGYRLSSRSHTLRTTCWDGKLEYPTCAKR

T2: fully deglycosylated complement factor H (200 h PNGase F) (human), P08603
T2 chain: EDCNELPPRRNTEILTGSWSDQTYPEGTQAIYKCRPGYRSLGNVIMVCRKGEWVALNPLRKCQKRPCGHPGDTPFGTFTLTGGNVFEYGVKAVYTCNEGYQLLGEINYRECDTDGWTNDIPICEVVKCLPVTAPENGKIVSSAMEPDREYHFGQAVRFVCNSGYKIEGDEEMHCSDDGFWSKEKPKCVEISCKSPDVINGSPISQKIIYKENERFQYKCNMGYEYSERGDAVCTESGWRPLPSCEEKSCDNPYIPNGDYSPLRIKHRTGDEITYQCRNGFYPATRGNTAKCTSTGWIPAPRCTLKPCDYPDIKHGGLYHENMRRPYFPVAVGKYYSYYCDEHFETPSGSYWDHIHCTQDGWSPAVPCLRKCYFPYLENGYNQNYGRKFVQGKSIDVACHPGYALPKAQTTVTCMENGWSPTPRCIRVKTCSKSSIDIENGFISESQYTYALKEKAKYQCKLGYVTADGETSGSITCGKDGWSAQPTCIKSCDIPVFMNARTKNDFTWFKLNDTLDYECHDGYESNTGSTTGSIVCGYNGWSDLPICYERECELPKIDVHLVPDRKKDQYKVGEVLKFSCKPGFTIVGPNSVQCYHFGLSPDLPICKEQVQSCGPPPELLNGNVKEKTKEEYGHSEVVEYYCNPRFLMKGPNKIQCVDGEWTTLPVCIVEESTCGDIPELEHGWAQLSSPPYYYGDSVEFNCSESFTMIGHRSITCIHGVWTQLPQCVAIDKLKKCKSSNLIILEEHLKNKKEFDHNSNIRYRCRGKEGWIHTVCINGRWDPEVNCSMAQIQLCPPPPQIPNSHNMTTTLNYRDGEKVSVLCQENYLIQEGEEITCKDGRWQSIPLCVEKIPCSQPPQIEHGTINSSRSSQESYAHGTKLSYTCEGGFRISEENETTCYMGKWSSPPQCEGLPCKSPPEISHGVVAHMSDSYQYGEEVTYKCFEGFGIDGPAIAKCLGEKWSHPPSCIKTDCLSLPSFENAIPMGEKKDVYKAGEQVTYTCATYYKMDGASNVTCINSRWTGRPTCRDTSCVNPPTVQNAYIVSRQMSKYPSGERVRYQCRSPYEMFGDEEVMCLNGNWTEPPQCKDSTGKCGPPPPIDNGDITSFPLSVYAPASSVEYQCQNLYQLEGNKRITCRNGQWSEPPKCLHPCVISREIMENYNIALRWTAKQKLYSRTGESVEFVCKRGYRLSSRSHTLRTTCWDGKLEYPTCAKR

T3: complement factor H, native glycosylated, full-length, purified from human plasma (human), P08603
T3 chain: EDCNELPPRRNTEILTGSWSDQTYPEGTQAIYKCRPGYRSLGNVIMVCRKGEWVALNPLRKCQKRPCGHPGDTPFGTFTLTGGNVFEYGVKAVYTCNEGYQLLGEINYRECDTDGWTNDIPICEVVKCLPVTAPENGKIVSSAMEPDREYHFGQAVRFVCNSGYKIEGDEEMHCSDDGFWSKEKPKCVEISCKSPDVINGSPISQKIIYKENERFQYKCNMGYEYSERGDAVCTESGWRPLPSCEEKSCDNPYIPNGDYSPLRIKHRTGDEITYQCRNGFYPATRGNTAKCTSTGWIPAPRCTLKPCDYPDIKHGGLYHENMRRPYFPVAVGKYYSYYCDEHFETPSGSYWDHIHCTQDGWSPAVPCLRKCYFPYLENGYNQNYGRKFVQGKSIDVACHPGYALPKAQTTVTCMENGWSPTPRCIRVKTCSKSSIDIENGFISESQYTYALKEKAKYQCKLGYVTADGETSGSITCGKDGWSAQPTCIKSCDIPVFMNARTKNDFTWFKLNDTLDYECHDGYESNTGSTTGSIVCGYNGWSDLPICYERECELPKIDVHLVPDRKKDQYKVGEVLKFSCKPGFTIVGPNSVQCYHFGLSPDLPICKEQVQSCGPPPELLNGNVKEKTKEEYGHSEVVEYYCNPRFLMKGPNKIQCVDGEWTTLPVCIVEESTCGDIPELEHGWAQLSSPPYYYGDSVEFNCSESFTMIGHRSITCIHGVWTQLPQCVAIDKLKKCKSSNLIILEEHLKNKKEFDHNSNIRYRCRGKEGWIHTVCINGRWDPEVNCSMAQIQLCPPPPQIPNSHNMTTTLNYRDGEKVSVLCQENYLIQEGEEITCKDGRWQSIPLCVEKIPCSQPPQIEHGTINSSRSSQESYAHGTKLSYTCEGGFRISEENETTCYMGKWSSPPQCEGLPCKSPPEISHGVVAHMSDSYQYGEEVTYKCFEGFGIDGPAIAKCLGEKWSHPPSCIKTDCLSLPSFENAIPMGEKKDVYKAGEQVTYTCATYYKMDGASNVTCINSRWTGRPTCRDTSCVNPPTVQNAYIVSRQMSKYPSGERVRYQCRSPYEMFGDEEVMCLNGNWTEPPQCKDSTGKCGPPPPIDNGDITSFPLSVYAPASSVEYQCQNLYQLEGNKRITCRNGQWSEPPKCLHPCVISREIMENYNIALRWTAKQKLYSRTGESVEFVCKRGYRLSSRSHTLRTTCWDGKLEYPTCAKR


What was measured:
Settings in all cases: remark: other sources report otherwise
[1] = biological target: T1, partially deglycosylated complement …; test: AUC; sedimentation velocity of full-length CFH, 20 °C, 40,000 rpm, Hepes buffer, 0.2 to 1.8 mg/ml, c(s) analysis in SEDFIT, proportions from peak integration; monomer to dimer
[2] = biological target: T2, fully deglycosylated complement factor …; test: as above
[3] = biological target: T3, complement factor H, native …; test: SPR; Biacore X100, biotinylated glycosylated CFH on a streptavidin chip (781 RU), CFH preparations flowed at 0.01 to 1.8 μM, Hepes buffer, single-cycle, 1:1 steady-state affinity fit

Row | proportion of dimer [1] | stoichiometry N [1] | proportion of dimer [2] | stoichiometry N [2] | Kd [3] | Binder
1 | 15% | 2 |  |  |  | partially deglycosylated complement factor H (100 h PNGase F), P08603 19-1231 (natural protein, here or on the partner: N-linked glycans partly removed with PNGase F: forms with three to six glycan chains were present; N-linked glycans partly removed with PNGase F: forms with three to six glycan chains were present) EDCNELPPRRNTEILTGSWSDQTYPEGTQAIYKCRPGYRSLGNVIMVCRKGEWVALNPLRKCQKRPCGHPGDTPFGTFTLTGGNVFEYGVKAVYTCNEGYQLLGEINYRECDTDGWTNDIPICEVVKCLPVTAPENGKIVSSAMEPDREYHFGQAVRFVCNSGYKIEGDEEMHCSDDGFWSKEKPKCVEISCKSPDVINGSPISQKIIYKENERFQYKCNMGYEYSERGDAVCTESGWRPLPSCEEKSCDNPYIPNGDYSPLRIKHRTGDEITYQCRNGFYPATRGNTAKCTSTGWIPAPRCTLKPCDYPDIKHGGLYHENMRRPYFPVAVGKYYSYYCDEHFETPSGSYWDHIHCTQDGWSPAVPCLRKCYFPYLENGYNQNYGRKFVQGKSIDVACHPGYALPKAQTTVTCMENGWSPTPRCIRVKTCSKSSIDIENGFISESQYTYALKEKAKYQCKLGYVTADGETSGSITCGKDGWSAQPTCIKSCDIPVFMNARTKNDFTWFKLNDTLDYECHDGYESNTGSTTGSIVCGYNGWSDLPICYERECELPKIDVHLVPDRKKDQYKVGEVLKFSCKPGFTIVGPNSVQCYHFGLSPDLPICKEQVQSCGPPPELLNGNVKEKTKEEYGHSEVVEYYCNPRFLMKGPNKIQCVDGEWTTLPVCIVEESTCGDIPELEHGWAQLSSPPYYYGDSVEFNCSESFTMIGHRSITCIHGVWTQLPQCVAIDKLKKCKSSNLIILEEHLKNKKEFDHNSNIRYRCRGKEGWIHTVCINGRWDPEVNCSMAQIQLCPPPPQIPNSHNMTTTLNYRDGEKVSVLCQENYLIQEGEEITCKDGRWQSIPLCVEKIPCSQPPQIEHGTINSSRSSQESYAHGTKLSYTCEGGFRISEENETTCYMGKWSSPPQCEGLPCKSPPEISHGVVAHMSDSYQYGEEVTYKCFEGFGIDGPAIAKCLGEKWSHPPSCIKTDCLSLPSFENAIPMGEKKDVYKAGEQVTYTCATYYKMDGASNVTCINSRWTGRPTCRDTSCVNPPTVQNAYIVSRQMSKYPSGERVRYQCRSPYEMFGDEEVMCLNGNWTEPPQCKDSTGKCGPPPPIDNGDITSFPLSVYAPASSVEYQCQNLYQLEGNKRITCRNGQWSEPPKCLHPCVISREIMENYNIALRWTAKQKLYSRTGESVEFVCKRGYRLSSRSHTLRTTCWDGKLEYPTCAKR
2 |  |  | 16% | 2 | 11.5 µM | fully deglycosylated complement factor H (200 h PNGase F), P08603 19-1231 (natural protein, here or on the partner: N-linked glycans removed with PNGase F: eight, seven, six or five removed, leaving none, one, two or three glycans; eight N-linked biantennary complex-type glycans, among them those at Asn1011 (SCR-17) and Asn1077 (SCR-18)) EDCNELPPRRNTEILTGSWSDQTYPEGTQAIYKCRPGYRSLGNVIMVCRKGEWVALNPLRKCQKRPCGHPGDTPFGTFTLTGGNVFEYGVKAVYTCNEGYQLLGEINYRECDTDGWTNDIPICEVVKCLPVTAPENGKIVSSAMEPDREYHFGQAVRFVCNSGYKIEGDEEMHCSDDGFWSKEKPKCVEISCKSPDVINGSPISQKIIYKENERFQYKCNMGYEYSERGDAVCTESGWRPLPSCEEKSCDNPYIPNGDYSPLRIKHRTGDEITYQCRNGFYPATRGNTAKCTSTGWIPAPRCTLKPCDYPDIKHGGLYHENMRRPYFPVAVGKYYSYYCDEHFETPSGSYWDHIHCTQDGWSPAVPCLRKCYFPYLENGYNQNYGRKFVQGKSIDVACHPGYALPKAQTTVTCMENGWSPTPRCIRVKTCSKSSIDIENGFISESQYTYALKEKAKYQCKLGYVTADGETSGSITCGKDGWSAQPTCIKSCDIPVFMNARTKNDFTWFKLNDTLDYECHDGYESNTGSTTGSIVCGYNGWSDLPICYERECELPKIDVHLVPDRKKDQYKVGEVLKFSCKPGFTIVGPNSVQCYHFGLSPDLPICKEQVQSCGPPPELLNGNVKEKTKEEYGHSEVVEYYCNPRFLMKGPNKIQCVDGEWTTLPVCIVEESTCGDIPELEHGWAQLSSPPYYYGDSVEFNCSESFTMIGHRSITCIHGVWTQLPQCVAIDKLKKCKSSNLIILEEHLKNKKEFDHNSNIRYRCRGKEGWIHTVCINGRWDPEVNCSMAQIQLCPPPPQIPNSHNMTTTLNYRDGEKVSVLCQENYLIQEGEEITCKDGRWQSIPLCVEKIPCSQPPQIEHGTINSSRSSQESYAHGTKLSYTCEGGFRISEENETTCYMGKWSSPPQCEGLPCKSPPEISHGVVAHMSDSYQYGEEVTYKCFEGFGIDGPAIAKCLGEKWSHPPSCIKTDCLSLPSFENAIPMGEKKDVYKAGEQVTYTCATYYKMDGASNVTCINSRWTGRPTCRDTSCVNPPTVQNAYIVSRQMSKYPSGERVRYQCRSPYEMFGDEEVMCLNGNWTEPPQCKDSTGKCGPPPPIDNGDITSFPLSVYAPASSVEYQCQNLYQLEGNKRITCRNGQWSEPPKCLHPCVISREIMENYNIALRWTAKQKLYSRTGESVEFVCKRGYRLSSRSHTLRTTCWDGKLEYPTCAKR
